From US20170107293A1 (BIOINVENT INTERNATIONAL, published 2017)
Positions count from the first letter of the chain named.

B1: 5E12 (antibody, human IgG1, V domains shown)
VH: EVQLLESGGGLVQPGGSLRLSCAASGFTFSSYGMHWVRQAPGKGLEWVAVISYDGINKDYADSMKGRFTISRDNSKNTLYLQMNSLRAEDTAVYYCARERKDAFDIWGQGTLVTVSS
VL: QSVLTQPPSASGTPGQRVTISCTGSSSNIGAGYDVHWYQQLPGTAPKLLIYSNNQRPSGVPDRFSGSKSGTSASLAISGLRSEDEADYYCATWDDSLNGLVFGGGTKLTVLG
notes: hFcγRIIB mAb, human IgG1 (WT); Only VH/VL tied to the clone; also called Antibody clone: 5E12
B2: 4B02 (antibody, human IgG1, V domains shown)
VH: B1 VH with S31N, Y32H, I56T, D59Y, M64V, K65R, R100T, K101W, I106V
VL: QSVLTQPPSASGTPGQRVTISCSGSSSNIGSNNANWYQQLPGTAPKLLIYDNNKRPSGVPDRFSGSKSGTSASLAISGLRSEDEADYYCQAWDSSTVVFGGGTKLTVLG
notes: hFcγRIIB mAb, human IgG1 (WT); Only VH/VL tied to the clone; also called Antibody clone: 4B02
B3: 6C11 (antibody, human IgG1, V domains shown)
VH: EVQLLESGGGLVQPGGSLRLSCAASGFTFDDYGMSWVRQAPGKGLEWVSAISGSGSSTYYADSVKGRFTISRDNSKNTLYLQMNSLRAEDTAVYYCAGGDIDYFDYWGQGTLVTVSS
VL: B1 VL with I29F, S52E, Q55K, T92A, L100P
notes: hFcγRIIB mAb, human IgG1 (WT); Only VH/VL tied to the clone; also called Antibody clone: 6C11
B4: 6C12 (antibody, human IgG1, V domains shown)
VH: B1 VH with I56S, D59Y, M64V, K101R
VL: QSVLTQPPSASGTPGQRVTISCTGSSSNIGAGYDVHWYQQLPGTAPKLLIYSDNQRPSGVPDRFSGSKSGTSASLAISGLRSEDEADYYCATWDSDTPVFGGGTKLTVLG
notes: hFcγRIIB mAb, human IgG1 (WT); Only VH/VL tied to the clone; also called Antibody clone: 6C12
B5: 6H08 (antibody, human IgG1, V domains shown)
VH: B1 VH with S30N, S31N, I56S, D59Y, M64V, R72K, R100Y
VL: B2 VL with S23T, N33T, A34V, D93G, S94T, S95G, T96I, V97R
notes: hFcγRIIB mAb, human IgG1 (WT); Only VH/VL tied to the clone; also called Antibody clone: 6H08
B6: 6G03 (antibody, human IgG1, V domains shown)
VH: EVQLLESGGGLVQPGGSLRLSCAASGFTFGSYGMHWVRQAPGKGLEWVSGISWDSAIIDYAGSVKGRFTISRDNSKNTLYLQMNSLRAEDTAVYYCAKDEAAAGAFDIWGQGTLVTVSS
VL: QSVLTQPPSASGTPGQRVTISCTGSSSNIGAGYDVHWYQQLPGTAPKLLIYGNTDRPSGVPDRFSGSKSGTSASLAISGLRSEDEADYYCAAWDDSLSGPVVFGGGTKLTVLG
notes: hFcγRIIB mAb, human IgG1 (WT); Only VH/VL tied to the clone; also called Antibody clone: 6G03

Biological target: T1, human FcγRIIA on cells (human, UniProt P12318 34-317)
T1 construct: whole, on cells; also called hFcγRIIA; FcγRIIA^+ve CHO
T1 sequence (looked up): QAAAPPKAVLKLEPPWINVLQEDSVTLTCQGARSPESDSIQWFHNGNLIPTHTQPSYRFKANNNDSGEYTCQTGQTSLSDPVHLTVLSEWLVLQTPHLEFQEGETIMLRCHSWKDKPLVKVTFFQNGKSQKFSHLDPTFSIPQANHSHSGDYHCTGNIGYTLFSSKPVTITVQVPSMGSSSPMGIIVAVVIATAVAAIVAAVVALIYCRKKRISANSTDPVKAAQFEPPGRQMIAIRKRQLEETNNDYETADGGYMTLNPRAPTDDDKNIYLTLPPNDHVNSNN
Assay: binding to FcγRIIA-transfected CHO-k1 cells

Binder	binding result
B1	no binding
B2	no binding
B3	no binding
B4	no binding
B5	no binding
B6	no binding
